Test results: publication PMC3074162

T1: ParB 65-139 (RHH domain) (Leifsonia xyli subsp. cynodontis …, UniProt Q6EEF9 65-139)
T1 sequence: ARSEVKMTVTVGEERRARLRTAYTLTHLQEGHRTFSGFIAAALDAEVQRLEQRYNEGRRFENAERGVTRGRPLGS


Target: T1, ParB 65-139 (RHH domain)
Experiment: ITC

Binder	Kd [nM]
R3-18-1A (dsDNA) DNA 1: AGAATAGGTGGAAAAGCC DNA 2: GGCTTTTCCACCTATTCT	56 ± 12
R3-18-7T (dsDNA) DNA 1: GGAATATGTGGAAAAGCC DNA 2: GGCTTTTCCACATATTCC	35 ± 5
R3-18-7A (dsDNA) DNA 1: GGAATAAGTGGAAAAGCC DNA 2: GGCTTTTCCACTTATTCC	15 ± 5
R3-18-4T (dsDNA) DNA 1: GGATTAGGTGGAAAAGCC DNA 2: GGCTTTTCCACCTAATCC	33 ± 8
R3-18-5G (dsDNA) DNA 1: GGAAGAGGTGGAAAAGCC DNA 2: GGCTTTTCCACCTCTTCC	38 ± 9
R3-18-3C (dsDNA) DNA 1: GGCATAGGTGGAAAAGCC DNA 2: GGCTTTTCCACCTATGCC	89 ± 13
R3-18-1C (dsDNA) DNA 1: CGAATAGGTGGAAAAGCC DNA 2: GGCTTTTCCACCTATTCG	216 ± 22
R3-18-2C (dsDNA) DNA 1: GCAATAGGTGGAAAAGCC DNA 2: GGCTTTTCCACCTATTGC	189 ± 22
R2-18 (dsDNA) DNA 1: AGTAAAGTAGGAATAGGT DNA 2: ACCTATTCCTACTTTACT	380 ± 100
R4-16 (dsDNA) DNA 1: GAAAAGCCAGAAACAG DNA 2: CTGTTTCTGGCTTTTC	530 ± 50
R3-18-4G (dsDNA) DNA 1: GGAGTAGGTGGAAAAGCC DNA 2: GGCTTTTCCACCTACTCC	62 ± 15
R3-18-5C (dsDNA) DNA 1: GGAACAGGTGGAAAAGCC DNA 2: GGCTTTTCCACCTGTTCC	39 ± 13
R3-18-2T (dsDNA) DNA 1: GTAATAGGTGGAAAAGCC DNA 2: GGCTTTTCCACCTATTAC	187 ± 20
R3-18-4C (dsDNA) DNA 1: GGACTAGGTGGAAAAGCC DNA 2: GGCTTTTCCACCTAGTCC	45 ± 12
R1-18 (dsDNA) DNA 1: TGGCTATCCAGTAAAGTA DNA 2: TACTTTACTGGATAGCCA	950 ± 680
R3-18-2A (dsDNA) DNA 1: GAAATAGGTGGAAAAGCC DNA 2: GGCTTTTCCACCTATTTC	59 ± 29
R3-18-5A (dsDNA) DNA 1: GGAAAAGGTGGAAAAGCC DNA 2: GGCTTTTCCACCTTTTCC	27 ± 11
R3-18-6T (dsDNA) DNA 1: GGAATTGGTGGAAAAGCC DNA 2: GGCTTTTCCACCAATTCC	37 ± 5
R3-18-6G (dsDNA) DNA 1: GGAATGGGTGGAAAAGCC DNA 2: GGCTTTTCCACCCATTCC	209 ± 77
R3-18-3T (dsDNA) DNA 1: GGTATAGGTGGAAAAGCC DNA 2: GGCTTTTCCACCTATACC	123 ± 12
R3-18-3G (dsDNA) DNA 1: GGGATAGGTGGAAAAGCC DNA 2: GGCTTTTCCACCTATCCC	121 ± 31
R3-18-6C (dsDNA) DNA 1: GGAATCGGTGGAAAAGCC DNA 2: GGCTTTTCCACCGATTCC	60 ± 28
R3-18-1T (dsDNA) DNA 1: TGAATAGGTGGAAAAGCC DNA 2: GGCTTTTCCACCTATTCA	67 ± 6
R4-20 (dsDNA) DNA 1: TGGAAAAGCCAGAAACAGTG DNA 2: CACTGTTTCTGGCTTTTCCA	68 ± 48
